Kd data for one substance are collected here from patent US20260243780A1.

In assay [1] the target is transferrin receptor protein 1 (TFRC), as used in the SPR measurement. Nature of the assay: SPR, concentration gradient binding curves.
Assay [2] addresses SLC3A2, as used in the SPR measurement. Briefly: SPR, concentration gradient binding curves.

pKd: −log10 of the molar value.

As for “Cf48 small peptide (C4orf48), as used in the SPR measurement”, the negative logarithm of the Kd (pKd) in assay [1] is 6.24; in assay [2], 7.45.
